Target: T1, RIG-I (ΔCARDs 1-238) (human, UniProt O95786 239-925, del1-238)
T1 sequence: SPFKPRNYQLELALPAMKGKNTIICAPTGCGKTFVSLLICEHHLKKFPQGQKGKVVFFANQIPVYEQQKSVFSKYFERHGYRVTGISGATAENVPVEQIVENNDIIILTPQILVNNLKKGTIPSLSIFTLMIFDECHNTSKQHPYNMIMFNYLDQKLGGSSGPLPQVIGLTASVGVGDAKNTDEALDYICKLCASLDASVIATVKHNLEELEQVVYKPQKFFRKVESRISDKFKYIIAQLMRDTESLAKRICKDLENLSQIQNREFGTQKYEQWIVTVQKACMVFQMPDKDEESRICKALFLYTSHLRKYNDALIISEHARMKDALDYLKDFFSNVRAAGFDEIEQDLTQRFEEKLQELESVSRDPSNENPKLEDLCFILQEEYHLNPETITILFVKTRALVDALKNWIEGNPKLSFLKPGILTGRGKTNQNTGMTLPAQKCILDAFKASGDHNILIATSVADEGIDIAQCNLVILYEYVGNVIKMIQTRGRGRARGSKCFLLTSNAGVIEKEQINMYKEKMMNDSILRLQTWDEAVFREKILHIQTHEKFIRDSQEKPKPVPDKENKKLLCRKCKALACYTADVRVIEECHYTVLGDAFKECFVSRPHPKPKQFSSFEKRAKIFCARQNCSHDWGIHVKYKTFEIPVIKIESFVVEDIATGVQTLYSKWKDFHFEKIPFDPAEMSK
Assay: X-ray crystallography

GGCGCGGCUUCGGCCGCGCC (structured_RNA, 5' triphosphate) [5'ppp8L]: binds.

— PMC3515076
